This is an account of results in the supplement of paper PMC5998384.

The test system of data set [1] is HeLa Kyoto. Kind of data set: solubility change mitosis vs G1/S (difference of NP-40 vs SDS log2 ratios) (log2 ratio difference); higher = more soluble in mitosis.
Data set [2] deals with HeLa Kyoto. The experiment in a line: solubility in G1/S (NP-40 vs SDS abundance) (log2 ratio); higher = more soluble. To be noted: cell cycle stage: G1/S.
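Throughout, for solubility change mitosis vs G1/S (difference of NP-40 vs SDS log2 ratios): synchronized HeLa Kyoto cells (double thymidine block for G1/S, nocodazole release for mitosis), protein amounts in NP-40 versus SDS lysates quantified by mass spectrometry, three biological replicates.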
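Throughout, for solubility in G1/S (NP-40 vs SDS abundance): HeLa Kyoto cells arrested at G1/S by double thymidine block, proteins quantified by TMT10plex mass spectrometry in mild NP-40 versus SDS extracts, three biological replicates.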

As for “MRPWTGSWRWIMLILFAWGTLLFYIGGHLVRDNDHPDHSSRELSKILAKLERLKQQNEDLRRMAESLRIPEGPIDQGPAIGRVRVLEEQLVKAKEQIENYKKQTRNGLGKDHEILRRRIENGAKELWFFLQSELKKLKNLEGNELQRHADEFLLDLGHHERSIMTDLYYLSQTDGAGDWREKEAKDLTELVQRRITYLQNPKDCSKAKKLVCNINKGCGYGCQLHHVVYCFMIAYGTQRTLILESQNWRYATGGWETVFRPVSETCTDRSGISTGHWSGEVKDKNVQVVELPIVDSLHPRPPYLPLAVPEDLADRLVRVHGDPAVWWVSQFVKYLIRPQPWLEKEIEEATKKLGFKHPVIGVHVRRTDKVGTEAAFHPIEEYMVHVEEHFQLLARRMQVDKKRVYLATDDPSLLKEAKTKYPNYEFISDNSISWSAGLHNRYTENSLRGVILDIHFLSQADFLVCTFSSQVCRVAYEIMQTLHPDASANFHSLDDIYYFGGQNAHNQIAIYAHQPRTADEIPMEPGDIIGVAGNHWDGYSKGVNRKLGRTGLYPSYKVREKIETVKYPTYPEAEK [FUT8]”, the “solubility change mitosis (log2)” value with HeLa Kyoto [1] is -0.0307. Also, the “solubility in G1/S (log2)” value with HeLa Kyoto [2] is -0.188.

As to “MSRRRFDCRSISGLLTTTPQIPIKMENFNNFYILTSKELGRGKFAVVRQCISKSTGQEYAAKFLKKRRRGQDCRAEILHEIAVLELAKSCPRVINLHEVYENTSEIILILEYAAGGEIFSLCLPELAEMVSENDVIRLIKQILEGVYYLHQNNIVHLDLKPQNILLSSIYPLGDIKIVDFGMSRKIGHACELREIMGTPEYLAPEILNYDPITTATDMWNIGIIAYMLLTHTSPFVGEDNQETYLNISQVNVDYSEETFSSVSQLATDFIQSLLVKNPEKRPTAEICLSHSWLQQWDFENLFHPEETSSSSQTQDHSVRSSEDKTSKSSCNGTCGDREDKENIPEDSSMVSKRFRFDDSLPNPHELVSDLLC [STK17B]”, in the data set with HeLa Kyoto [1], the “solubility change mitosis (log2)” value was -0.161. Also, the “solubility in G1/S (log2)” value with HeLa Kyoto [2] stood at 0.0558.

Regarding “MASSHSSSPVPQGSSSDVFFKIEVDPSKHIRPVPSLPDVCPKEPTGDSHSLYVAPSLVTDQHRWTVYHSKVNLPAALNDPRLAKRESDFFTKTWGLDFVDTEVIPSFYLPQISKEHFTVYQQEISQREKIHERCKNICPPKDTFERTLLHTHDKSRTDLEQVPKIFMKPDFALDDSLTFNSVLPWSHFNTAGGKGNRDAASSKLLQEKLSHYLDIVEVNIAHQISLRSEAFFHAMTSQHELQDYLRKTSQAVKMLRDKIAQIDKVMCEGSLHILRLALTRNNCVKVYNKLKLMATVHQTQPTVQVLLSTSEFVGALDLIATTQEVLQQELQGIHSFRHLGSQLCELEKLIDKMMIAEFSTYSHSDLNRPLEDDCQVLEEERLISLVFGLLKQRKLNFLEIYGEKMVITAKNIIKQCVINKVSQTEEIDTDVVVKLADQMRMLNFPQWFDLLKDIFSKFTIFLQRVKATLNIIHSVVLSVLDKNQRTRELEEISQQKNAAKDNSLDTEVAYLIHEGMFISDAFGEGELTPIAVDTTSQRNASPNSEPCSSDSVSEPECTTDSSSSKEHTSSSAIPGGVDIMVSEDMKLTDSELGKLANNIQELLYSASDICHDRAVKFLMSRAKDGFLEKLNSMEFITLSRLMETFILDTEQICGRKSTSLLGALQSQAIKFVNRFHEERKTKLSLLLDNERWKQADVPAEFQDLVDSLSDGKIALPEKKSGATEERKPAEVLIVEGQQYAVVGTVLLLIRIILEYCQCVDNIPSVTTDMLTRLSDLLKYFNSRSCQLVLGAGALQVVGLKTITTKNLALSSRCLQLIVHYIPVIRAHFEARLPPKQYSMLRHFDHITKDYHDHIAEISAKLVAIMDSLFDKLLSKYEVKAPVPSACFRNICKQMTKMHEAIFDLLPEEQTQMLFLRINASYKLHLKKQLSHLNVINDGGPQNGLVTADVAFYTGNLQALKGLKDLDLNMAEIWEQKR [VPS54]”, the “solubility change mitosis (log2)” value in the data set on HeLa Kyoto [1] was 0.126. Also, the “solubility in G1/S (log2)” value in the data set on HeLa Kyoto [2] was -0.136.

“MAKRRAAEPVTFHVPWKRLLLCDFAEQPPPPPLWIRPPGVAHAGQLLGVPEQHRKRKIDAGTMAEPSASPSKRRDSGDNSAPSGQEREDHGLETGDPPLPPPPVLPGPGEELPGARLPGGGGDDGAGRAGPPRGDWGVASRQHNEEFWQYNTFQYWRNPLPPIDLADIEDLSEDTLTEATLQGRNEGAEVDMES [C9ORF40]”: the “solubility change mitosis (log2)” value in the data set on HeLa Kyoto [1] is -0.227. Moreover, in the data set on HeLa Kyoto [2], the “solubility in G1/S (log2)” value stood at 0.182.

TAF1: the “solubility change mitosis (log2)” value with HeLa Kyoto [1] turned out to be 0.0526. Moreover, in the data set on HeLa Kyoto [2], the “solubility in G1/S (log2)” value is -0.408.

For “MSRQAKDDFLRHYTVSDPRTHPKGYTEYKVTAQFISKKDPEDVKEVVVWKRYSDFRKLHGDLAYTHRNLFRRLEEFPAFPRAQVFGRFEASVIEERRKGAEDLLRFTVHIPALNNSPQLKEFFRGGEVTRPLEVSRDLHILPPPLIPTPPPDDPRLSQLLPAERRGLEELEVPVDPPPSSPAQEALDLLFNCESTEEASGSPARGPLTEAELALFDPFSKEEGAAPSPTHVAELATMEVESARLDQEPWEPGGQEEEEDGEGGPTPAYLSQATELITQALRDEKAGAYAAALQGYRDGVHVLLQGVPSDPLPARQEGVKKKAAEYLKRAEEILRLHLSQLPP [SNX15]”, the “solubility change mitosis (log2)” value with HeLa Kyoto [1] was -0.104. The “solubility in G1/S (log2)” value with HeLa Kyoto [2] is 0.365.

Consider “MAEGPEEARGHPPGQDDGGGDHEPVPSLRGPPTTAVPCPRDDPQAEPQAPGRPTAPGLAAAAAADKLEPPRELRKRGEAASGSGAELQEQAGCEAPEAAAPRERPARLSAREYSRQVHEWLWQSYCGYLTWHSGLAAFPAYCSPQPSPQSFPSGGAAVPQAAAPPPPQLGYYNPFYFLSPGAAGPDPRTAAGISTPAPVAGLGPRAPHVQASVRATPVTRVGSAAPSRSPSETGRQAGREYVIPSLAHRFMAEMVDFFILFFIKATIVLSIMHLSGIKDISKFAMHYIIEEIDEDTSMEDLQKMMVVALIYRLLVCFYEIICIWGAGGATPGKFLLGLRVVTCDTSVLIAPSRVLVIPSSNVSITTSTIRALIKNFSIASFFPAFITLLFFQHNRTAYDIVAGTIVVKRNGVR [FAM8A1]”, for which, in the data set with HeLa Kyoto [1], the “solubility change mitosis (log2)” value stood at 0.0402. Further, the “solubility in G1/S (log2)” value in the data set with HeLa Kyoto [2] is -0.0476.

For the substance “MLRSTGFFRAIDCPYWSGAPGGPCRRPYCHFRHRGARGSGAPGDGGEAPPAAGLGYDPYNPELPKPPAQRENGTLGLGEEPRPDVLELELVNQAIEAVRSEVELEQRRYRELLETTREHRSAEAPALAPRGPNASPTVGPDEDAFPLAFDYSPGSHGLLSPDAGYQPTPLAAPAEPGSKYSLASLDRGQGRGGGGGGALEYVPKAVSQPRRHSRPVPSGKYVVDNSRPPTDLEYDPLSNYSARHLSRASSRDERAAKRPRGSRGSEPYTPAPKKLCDPFGSCDARFSDSEDEAATVPGNEPTTASTPKARADPEIKATGQPPSKEGLEAEGGGLRETKETAVQCDVGDLQPPPAKPASPAQVQSSQDGGCPKEGKPKKKKTGAPPAPSCKDGAQGKDKTKDKGRGRPVEKPRADKKGPQASSPRRKAERPEGTKKKPSSATPVATSGKGRPDRPARRPSPTSGDSRPAAGRGPPRPLQLPDRKSTKAPSGKLVERKARSLDEGASQDAPKLKKRALSHADLFGDESEDEAAGPGVPSVWPSALPSLSSDSDSDSDSSLGFPEAQGPPKRLKASPPPSPAPSSSSSSSSSTSSAGADVDYSALEKEVDFDSDPMEECLRIFNESTSVKTEDRGRLARQPPKEEKSEEKGLSGLTTLFPGQKRRISHLSKQGQEVEPPRRGPAVPPARPPTAQEVCYLRAQQAQRASASLLQAPARLAEKSPSVHISAPGEKRRIAHIPNPRLAAAPTGAKRTLAASGSQSSNGPEPGGQQLKTRTLSGMASKTTTTIIPKRIAHSPSLQSLKKPIIPKEFGGKVPTVIRQRYLNLFIEECLKFCTSNQEAIEKALNEEKVAYDRSPSKNIYLNVAVNTLKKLRGLAPSAVPGLSKTSGRRVVSHEVVLGGRLAAKTSFSLSRPSSPRVEDLKGAALYSRLREYLLTQDQLKENGYPFPHPERPGGAIIFTAEEKRPKDSSCRTCCRCGTEYLVSSSGRCIRDEECYYHWGRLRRNRVAGGWETQYMCCSAAAGSVGCQVAKQHVQDGRKERLEGFVKTFEKELSGDTHPGIYALDCEMSYTTYGLELTRVTVVDTDVHVVYDTFVKPDNEIVDYNTRFSGVTEADLADTSVTLRDVQAVLLSMFSADTILIGHSLESDLLALKVIHSTVVDTSVLFPHRLGLPYKRSLRNLMADYLRQIIQDNVDGHSSSEDAGACMHLVIWKVREDAKTKR [REXO1]”, in the data set on HeLa Kyoto [1], the “solubility change mitosis (log2)” value is -0.0256. Further, the “solubility in G1/S (log2)” value in the data set with HeLa Kyoto [2] was -0.201.

Turning to CLIC3, in the data set with HeLa Kyoto [1], the “solubility change mitosis (log2)” value was -0.00439. Also, in the data set with HeLa Kyoto [2], the “solubility in G1/S (log2)” value came out at 0.369.
